The target of assay [1] is T1, AF9 (Homo sapiens, UniProt P42568).
T1 sequence (P42568 497-568): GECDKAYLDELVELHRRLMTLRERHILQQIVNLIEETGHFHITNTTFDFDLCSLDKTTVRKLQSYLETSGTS
The assay can be described thus: SPR competitive binding assay of small molecules, AF9-DOT1L. More on the design: against AF9(497-568) and ENL (489-559) proteins running different tested concentrations over CM5 chip; GB1 (pGB1-LIC vector); made in house; host or cells: Escherichia coli BL21 (DE3). The text has this:
Several secondary assays have already been developed to support hit confirmation and the hit-to-probe optimization process. The established and optimized SPR-based competitive assay utilizing DOT1L protein (826-1095) immobilized on the CM5 sensor chip was used as a secondary counter screen assay to validate binding of compounds to AF9. […] Both assays gave similar IC50 values.
(§1) To further validate the binding of the confirmed compounds and identify potential promiscuous inhibitors, several secondary assays have been developed to support hit confirmation and the hit-to-probe optimization process. In order to determine that the compounds bind effectively to the target and disrupt protein-protein interaction, a SPR competitive binding assay was used. This assay uses a platform that differs from the FP-based assay where DOT1L recombinant protein (residues […]) is immobilized on a CM5 chip, allowing for testing of the inhibitors for their ability to disrupt AF9-DOT1L protein-protein interactions.

Assay [2] concerns the target T2, ENL (Homo sapiens, UniProt Q03111).
T2 construct: against AF9(497-568) and ENL (489-559) proteins running different tested concentrations over CM5 chip; MBP (pMSCG9-LIC vector); made in house; host or cells: Escherichia coli BL21 (DE3)
T2 sequence (Q03111 489-559): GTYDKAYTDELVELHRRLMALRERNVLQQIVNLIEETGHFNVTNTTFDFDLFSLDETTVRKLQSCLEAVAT
Description: SPR competitive binding assay of small molecules, ENL. The settings on record: SPR competitive based assay; read-out: ENL IC50 ± SD.
From the text: as §1
This class of compounds was also tested for their binding against ENL protein, which is highly homologous with AF9.

Assay [3] deals with T2, ENL. Description: Solution competitive SPR assay of peptides, ENL-DOT1L interaction. It counts as binding. The settings on record: CM5 chip with immobilized DOT1L protein, read-out: IC50 ± SD ENL. The method, then:
Solution competitive SPR based assay was performed to determine the IC50 values of DOT1L peptides. […] Response units (RU) were measured at 15 seconds in the dissociation phase and the specific binding was calculated by subtracting the control surface (Fcl) signal from the surfaces with immobilized Mocr-DOT1L. IC50 values were determined by non-linear least squares analysis using Graph Pad Prism 5.0 software.

The target in assay [4] is T1, AF9. Description: Optimized competitive FP binding assay (N-Flu-DOT1L / AF9). More on the design: the recombinant GB1-AF9 protein (residues 497-568); made in house; host or cells: Escherichia coli BL21 (DE3).
Assay [5] addresses T3, ENL (489-559) (Homo sapiens, UniProt Q03111).
T3 construct: ENL protein (residues 489-559); MBP (pMSCG9-LIC vector); made in house; host or cells: Escherichia coli BL21 (DE3)
T3 sequence (Q03111 489-559): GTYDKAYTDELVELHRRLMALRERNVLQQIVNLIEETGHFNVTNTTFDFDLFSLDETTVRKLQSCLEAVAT
The assay can be described thus: SPR binding of ENL to immobilized DOT1L constructs. The settings on record: DOT1L construct immobilized on CM5 sensor chip, read-out: ENL (489-559) Kd ± SD. An excerpt:
(§2) AF9 and ENL are two of the most common MLL fusion proteins (see, e.g., Daser A, Rabbitts T H (2004) Genes & development 18: 965-974) and belong to the YEATS protein family (see, e.g., Schulze J M, et al., (2009) Biochem Cell Biol 87: 65-75). Both of these two proteins consist of N-terminal YEATS domain and a C-terminal hydrophobic domain (see, e.g., Zhang W, et al., (2007) J Clin Invest 117: 773-783). AF9 and ENL shared high homology in the C-terminal domain and it had been shown that through this domain AF9/ENL are involved in the PPI which is crucial for MLL leukemia transformation (see, e.g., Dobson C L, et al., (1999) Embo J 18: 3564-3574; Mueller D, et al., (2007) Blood 110: 4445-4454; Yokoyama A, et al., (2010) Cancer cell 17: 198-212). The interaction of AF9 or ENL with DOT1L has been reported previously by co-immunoprecipitation and yeast 2-hybrid studies (see, e.g., Biswas D, et al., (2011) PNAS 108: 15751-15756; Yokoyama A, et al., (2010) Cancer cell 17: 198-212; Zhang W, et al., (2006) J Biol Chem 281: 18059-18068; Zhang W, et al., (2007) J Clin Invest 117: 773-783; Mueller D, et al., (2007) Blood 110: 4445-4454). However, there is a lack of detailed biochemical and biophysical characterization of this interaction. To understand the molecular basis of DOT1L interaction with MLL-fusion proteins, these PPIs were analyzed using surface plasma resonance (SPR). An SPR assay was developed to quantify the binding affinity between full length DOT1L protein and MLL-fusion proteins. For that purpose, the flag-tagged full length DOT1L protein was transiently transfected in HEK 293 cells and after 48 hours transfection the flag-tagged DOT1L protein was captured from the HEK 293 whole cell lysate on an anti-flag antibody-coated biosensor chip (FIG. 1B and FIG. 14). The recombinant C-terminal domain from human AF9 (residues 497-568) and the corresponding segment from ENL protein (residues 489-559) were cloned, expressed and purified for the biochemical binding studies (FIG. 1A). […] For the first time these studies quantitatively determined the binding affinity of DOT1L to AF9 and ENL and confirmed that DOT1L directly interacts with AF9 and ENL and has about six folds higher affinity against AF9 in comparison with ENL.
(§3) Surface Plasmon Resonance (SPR) binding studies—All SPR based experiments were performed on a BIAcore 2000 (BIAcore, GE Healthcare) instrument. Different tested DOT1L recombinant proteins were immobilized on a CM5 sensor chip by standard EDC/NHS coupling chemistry followed by ethanolamine deactivation of the surfaces. For immobilization of full length Flag-DOT1L protein, anti-Flag antibody (Sigma, Anti-FLAG M2) was immobilized on CM5 chip by the same amine coupling chemistry. HEK293 whole cells lysate with overexpressed Flag-DOT1L at 2.4 μg/l total protein concentration was injected over the Flag antibody surface, followed by injecting of AF9 and ENL in different concentrations. […] The Fcl surface was used as a control surface and was treated in the same manner as the active surfaces but in the absence of immobilized protein. Binding parameters, kon, koff and Kd were calculated by simultaneous non-linear regression using BIAEvaluation software.

Assay [6] concerns the target T4, AF9 (497-568) (Homo sapiens, UniProt P42568).
T4 construct: human AF9 (residues 497-568); GB1 (pGB1-LIC vector); made in house; host or cells: Escherichia coli BL21 (DE3)
T4 sequence (P42568 497-568): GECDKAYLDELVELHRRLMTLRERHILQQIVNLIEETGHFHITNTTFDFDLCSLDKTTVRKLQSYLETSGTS
Description: SPR binding of AF9 to immobilized DOT1L constructs. Particulars: DOT1L construct immobilized on CM5 sensor chip, read-out: AF9 (497-568) Kd ± SD.
From the text: as §2, §3

The mark [7] stands for this setting: SPR competitive, read-out: IC50, inhibition of AF9-DOT1L interaction.
Where [8] appears, read: SPR competitive based assay, read-out: AF9 IC50 ± SD.

Where two headings read alike, the source gives them in different places. Where a SMILES comes first, the peptide text is derived from it.

With `O=c1c(O)cccc2cc(O)c(O)c(O)c12` [CCG-38505], the IC50 in assay [1] (setting [7]) was 5720 nM. Same read-out and setting: with `O=C(c1cc(O)c(O)c(O)c1)c1ccc(O)c(O)c1O` [CCG-208095] the figure was 6270 nM. As for `Cc1ccc(S(=O)(=O)N2c3ccccc3NC3=C(C(=O)CC(C)(C)C3)C2c2ccco2)cc1` (stereo not shown) [Compound 41], the IC50 in assay [2] was 33200 ± 8700 nM; in assay [1] (setting [8]), 46400 ± 12400 nM.

In the case of `CC1(C)CC(=O)C2=C(C1)Nc1ccccc1N(S(C)(=O)=O)C2c1cccs1` (stereo not shown) [Compound 51], the IC50 in assay [2], in assay [1] (setting [8]) and in assay [1] (setting [7]) was above 200000 nM in each case. In the case of `Cc1ccc(C)c(S(=O)(=O)N2c3ccccc3NC3=C(C(=O)CCC3)C2c2cccs2)c1` (stereo not shown) [Compound 52], the IC50 is 25100 ± 2500 nM in assay [2] and 43100 ± 800 nM in assay [1] (setting [8]). With `CC[C@H](C)[C@H](NC(=O)[C@H](CO)NC(=O)[C@H](C)NC(=O)[C@@H]1CCCN1C(=O)[C@H](CC(C)C)NC(C)=O)C(=O)N1CCC[C@H]1C(=O)N[C@@H](CC(C)C)C(=O)N[C@@H](CO)C(=O)N[C@H](C(=O)N[C@H](C(N)=O)C(C)C)[C@@H](C)O` [Compound I867A] (Ac-LPASIPLSTV-NH2), the IC50 in assay [3] was above 200000 nM. Turning to `CC[C@H](C)[C@H](NC(=O)[C@@H]1CCCN1C(=O)[C@H](CC(C)C)NC(C)=O)C(=O)N[C@@H](CO)C(=O)N[C@H](C(=O)N1CCC[C@H]1C(=O)N[C@@H](CC(C)C)C(=O)N[C@@H](CO)C(=O)N[C@@H](C)C(=O)N[C@H](C(N)=O)C(C)C)[C@@H](C)CC` [Compound T873A] (Ac-LPISIPLSAV-NH2), the Ki in assay [4] came to 203 nM. “DOT1L (1-1537): Flag-tagged full length human DOT1L protein”: the values for the Kd in assay [5] and in assay [6] were 206 ± 80 nM and 33 ± 4 nM, respectively.

B1: DOT1L (925-1095): recombinant truncated DOT1L construct (protein)
chain: AGSRSLALAPAGFSYAGSVAISGALAGSPASLTPGAEPATLDESSSSGSLFATVGSRSSTPQHPLLLAQPRNSLPASPAHQLSSSPRLGGAAQGPLPEASKGDLPSDSGFSDPESEAKRRIVFTITTGAGSAKQSPSSKHSPLTASARGDCVPSHGQDSRRRGRRKRASAG
With B1, the equilibrium dissociation constant (Kd) in assay [5] stood at 6220 nM; in assay [6], 1820 nM.

B2: DOT1L (854-1095): recombinant truncated DOT1L construct (protein)
chain: AYGSSGELITSLPISIPLSTVQPNKLPVSIPLASVVLPSRAERARSTPSPVLQPRDPSSTLEKQIGANAHGAGSRSLALAPAGFSYAGSVAISGALAGSPASLTPGAEPATLDESSSSGSLFATVGSRSSTPQHPLLLAQPRNSLPASPAHQLSSSPRLGGAAQGPLPEASKGDLPSDSGFSDPESEAKRRIVFTITTGAGSAKQSPSSKHSPLTASARGDCVPSHGQDSRRRGRRKRASAG
For the molecule B2, the figures for the Kd in assay [5] and in assay [6] were 148 ± 14 nM and 135 ± 4 nM, respectively.

B3: DOT1L (826-1095): recombinant DOT1L construct (protein)
chain: SPQDPRPLSPGALQLAGEKSSEKGLRERAYGSSGELITSLPISIPLSTVQPNKLPVSIPLASVVLPSRAERARSTPSPVLQPRDPSSTLEKQIGANAHGAGSRSLALAPAGFSYAGSVAISGALAGSPASLTPGAEPATLDESSSSGSLFATVGSRSSTPQHPLLLAQPRNSLPASPAHQLSSSPRLGGAAQGPLPEASKGDLPSDSGFSDPESEAKRRIVFTITTGAGSAKQSPSSKHSPLTASARGDCVPSHGQDSRRRGRRKRASAG
For the molecule B3, the dissociation constant (Kd) in assay [5] came to 238 nM; in assay [6], 111 nM.

B4: DOT1L (826-958): recombinant truncated DOT1L construct (protein)
chain: SPQDPRPLSPGALQLAGEKSSEKGLRERAYGSSGELITSLPISIPLSTVQPNKLPVSIPLASVVLPSRAERARSTPSPVLQPRDPSSTLEKQIGANAHGAGSRSLALAPAGFSYAGSVAISGALAGSPASLTP
As to B4, the Kd in assay [5] amounted to 122 ± 16 nM; in assay [6], 92 ± 8 nM.

B5: DOT1L (826-937): recombinant truncated DOT1L construct (protein)
chain: SPQDPRPLSPGALQLAGEKSSEKGLRERAYGSSGELITSLPISIPLSTVQPNKLPVSIPLASVVLPSRAERARSTPSPVLQPRDPSSTLEKQIGANAHGAGSRSLALAPAGF
Take B5: the Kd came to 81 ± 6 nM in assay [5] and 78 ± 15 nM in assay [6].

B6: DOT1L (854-925): recombinant truncated DOT1L construct, 72 amino acids (protein)
chain: AYGSSGELITSLPISIPLSTVQPNKLPVSIPLASVVLPSRAERARSTPSPVLQPRDPSSTLEKQIGANAHGA
On to B6, for which the Kd was 90 nM in assay [5] and 42 nM in assay [6].

The values above are taken from patent US9862746B2, “Compositions and methods relating to hindering DOT1L recruitment by MLL-fusion proteins” (The Regents of the University of Michigan, priority 2013, dated 2018).
